Measurements published in patent US7393670B2, “Tyrosyl-tRNA synthetase variants” (Japan Science and Technology Agency, priority 2001, dated 2008).
Substitutions are numbered along the chain they refer to.

B1: 37V: E. coli TyrRS variant: position 37 Valine, position 195 Glutamine (protein, UniProt P0AGJ9 2-424, looked up, variant Y37V)
Tyrosine--tRNA ligase: ASSNLIKQLQERGLVAQVTDEEALAERLAQGPIALVCGFDPTADSLHLGHLVPLLCLKRFQQAGHKPVALVGGATGLIGDPSFKAAERKLNTEETVQEWVDKIRKQVAPFLDFDCGENSAIAANNYDWFGNMNVLTFLRDIGKHFSVNQMINKEAVKQRLNREDQGISFTEFSYNLLQGYDFACLNKQYGVVLQIGGSDQWGNITSGIDLTRRLHQNQVFGLTVPLITKADGTKFGKTEGGAVWLDPKKTSPYKFYQFWINTADADVYRFLKFFTFMSIEEINALEEEDKNSGKAPRAQYVLAEQVTRLVHGEEGLQAAKRITECLFSGSLSALSEADFEQLAQDGVPMVEMEKGADLMQALVDSELQPSRGQARKTIASNAITINGEKQSDPEYFFKEEDRLFGRFTLLRRGKKNYCLICWK
B2: VA: E. coli TyrRS double variant: position 37 Valine, position 195 Alanine (protein, UniProt P0AGJ9 2-424, looked up, variant Y37V Q195A)
Tyrosine--tRNA ligase: B1 Tyrosine--tRNA ligase with Q194A

Columns and labels:
Format in all cases: biochemical
[1] = Aminoacylation reaction, simplified Lloyd's method, inorganic phosphate detected with Biomol green; parameters: key: ***: the reaction could be detected strongly at 25 nM; **: strongly at 250 nM; *: weakly at 250 nM; the activity is high in the order of *** > ** > * > —; conditions: Table 3; 3-iodotyrosine 1 mM; 37° C. for 4 min
Protocol: (§1) In the first method, Lloyd's method (Nucleic Acids Research, 23:2886-2892, 1995) where inorganic phosphate produced by pyrophosphatase-drived hydrolysis of pyrophosphate which was one of the reaction products of the aminoacylation reactions was quantified was simplified, and the inorganic phosphate was detected using Biomol green (Funakoshi) to carry out the measurement of the aminoacylation reaction.
(§2) Amino acid concentrations were 200 μM and 1 mM for tyrosine and 3-iodotyrosine, respectively.
(§3) The method where the aminoacylation reaction is measured by quantifying inorganic phosphate produced by pyrophosphatase-drived hydrolysis of pyrophosphate which is one of reaction products of the aminoacylation has been described by Lloyd et al. (Nucleic Acids Research, 23:2886-2892, 1995). In one method of the invention, this method was simplified and the aminoacylation reaction was measured by the detection of inorganic phosphate using Biomol green (Funakoshi). Each enzyme obtained was incubated with 0.05 ml of the buffer B containing 1 mM ATP (Seikagaku Corporation), 30 μM purified crude tyrosyl-tRNA, and 100 μM tyrosine or 0.5 mM 3-iodotyrosine at 37° C. for one hour. To stop the reaction, 0.1 ml of Bio mol green was added. Absorbance of its supernatant was measured at 630 nm.

[2] = as above; parameters: key: ***: the aminoacylation reaction was detected by a microplate reader in the reaction at enzyme concentrations of 50 nM; **: 500 nM; *: 5 μM; the activity is high in the order of *** > ** > * > —; conditions: Table 2; tyrosine 200 μM; 37° C. for 4 min
Protocol: as §1, §2
as §3, with “Each enzyme obtained was incubated with 0.05 ml of the buffer B containing 1 mM ATP (Seikagaku Corporation), 30 μM purified crude tyrosyl-tRNA, and 100 μM tyrosine or 0.5 mM 3-iodotyrosine at 37° C. for one hour.” left out

[3] = Aminoacylation activity by Lloyd's method (release of pyrophosphates); conditions: at 37° C.; for Initial velocity of release of pyrophosphates, 3-iodotyrosine: 200 μM 3-iodotyrosine; for Initial velocity of release of pyrophosphates, Tyrosine: 200 μM tyrosine
Protocol: In the second method, Lloyd's method (Nucleic Acids Research, 23:2886-2892, 1995) was carried out without alteration.
In the second method, the activity was assayed by Lloyd's method (Nucleic Acids Research, 23:2886-2892, 1995). Each enzyme obtained was incubated with 0.4 ml of the buffer B containing 1 mM ATP (Seikagaku Corporation), 100 μM purified crude tyrosyl-tRNA, 200 μM tyrosine or 3-iodotyrosine at 37° C. for 6 min. The aminoacylation activity was represented as concentrations of released phosphate per min.

[4] = Aminoacylation reaction, simplified Lloyd's method, inorganic phosphate detected with Biomol green; parameters: key: ***: the reaction could be detected strongly at 25 nM; **: strongly at 250 nM; *: weakly at 250 nM; the activity is high in the order of *** > ** > * > —; conditions: Table 3; tyrosine 200 μM; 37° C. for 4 min
Protocol: as §1, §2
as §3, with “Each enzyme obtained was incubated with 0.05 ml of the buffer B containing 1 mM ATP (Seikagaku Corporation), 30 μM purified crude tyrosyl-tRNA, and 100 μM tyrosine or 0.5 mM 3-iodotyrosine at 37° C. for one hour.” left out

[5] = as above; parameters: key: ***: the aminoacylation reaction was detected by a microplate reader in the reaction at enzyme concentrations of 50 nM; **: 500 nM; *: 5 μM; the activity is high in the order of *** > ** > * > —; conditions: Table 2; 3-iodotyrosine 1 mM; 37° C. for 4 min
Protocol: as §1, §2, §3

Molecule	Aminoacylation activity, 3-iodotyrosine [1]	Aminoacylation activity, Tyrosine [2]	Initial velocity of release of pyrophosphates, 3-iodotyrosine [3]	Initial velocity of release of pyrophosphates, Tyrosine [3]	Aminoacylation activity, Tyrosine [4]	Aminoacylation activity, 3-iodotyrosine [5]
B1	***	***	73 nM PPi/min/nM enzyme	140 nM PPi/min/nM enzyme	***	***
B2	**		6.6 nM PPi/min/nM enzyme	3.7 nM PPi/min/nM enzyme	*	
